Measured values published in PMC12416549 (2024).
Positions count from the first letter of the chain named. Numbers in names are those of the source. Values belong to the binder of their own block, whether it stands above or below them.

Target: T1, TNFR1 (Homo sapiens, UniProt P19438)
T1 chain: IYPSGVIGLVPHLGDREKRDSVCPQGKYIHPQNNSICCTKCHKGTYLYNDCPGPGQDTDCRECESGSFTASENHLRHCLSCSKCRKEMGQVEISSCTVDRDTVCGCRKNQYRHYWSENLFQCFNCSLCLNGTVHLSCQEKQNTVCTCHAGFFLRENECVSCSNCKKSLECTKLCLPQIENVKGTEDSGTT
Test: yeast display SC50

B1: K23I (designed binder)
chain: SMEEEVEKAAKEYEKKKKEAIEIHLEKLKAKDKEAAERFLKELEEAAKEYAKDEAKTMSEEEAKRRAKKYKEKVLLSELSEEEQKEIKEAEEKLVRTILKYVEEAAK
apparent Kd (screen): 0.539 nM

B2: I98K (designed binder)
chain: B1 chain with I23K, I98K
apparent Kd (screen): 4.83 nM

B4: A51P (designed binder)
chain: B1 chain with I23K, A51P
apparent Kd (screen): 6.43 nM

B7: A63S (designed binder)
chain: B1 chain with I23K, A63S
apparent Kd (screen): 3.99 nM

B9: E86I (designed binder)
chain: B1 chain with I23K, E86I
apparent Kd (screen): 1.69 nM

B12: L25C (designed binder)
chain: B1 chain with I23K, L25C
apparent Kd (screen): 1.4 nM

B14: A55V (designed binder)
chain: B1 chain with I23K, A55V
apparent Kd (screen): 3 nM

B15: L28R (designed binder)
chain: B1 chain with I23K, L28R
apparent Kd (screen): 1.86 nM

B16: K100Q (designed binder)
chain: B1 chain with I23K, K100Q
apparent Kd (screen): 0.539 nM

B17: E78F (designed binder)
chain: B1 chain with I23K, E78F
apparent Kd (screen): 0.49 nM

B18: I87A (designed binder)
chain: B1 chain with I23K, I87A
apparent Kd (screen): 13.8 nM

B19: A20E (designed binder)
chain: B1 chain with A20E, I23K
apparent Kd (screen): 1.16 nM

B21: E7N (designed binder)
chain: B1 chain with E7N, I23K
apparent Kd (screen): 1.27 nM

B22: E72C (designed binder)
chain: B1 chain with I23K, E72C
apparent Kd (screen): 1.05 nM

B23: E19F (designed binder)
chain: B1 chain with E19F, I23K
apparent Kd (screen): 0.446 nM

B24: K107T (designed binder)
chain: B1 chain with I23K, K107T
apparent Kd (screen): 0.869 nM

Other lines, results leading:

apparent Kd (screen): 0.405 nM
B3: L75A (designed binder)
chain: B1 chain with I23K, L75A

apparent Kd (screen): 0.718 nM
B5: K41Q (designed binder)
chain: B1 chain with I23K, K41Q

apparent Kd (screen): 22.2 nM
B6: A67Y (designed binder)
chain: B1 chain with I23K, A67Y

apparent Kd (screen): 0.49 nM
B8: E22D (designed binder)
chain: B1 chain with E22D, I23K

apparent Kd (screen): 3 nM
B10: K100P (designed binder)
chain: B1 chain with I23K, K100P

apparent Kd (screen): 7.07 nM
B11: R66S (designed binder)
chain: B1 chain with I23K, R66S

apparent Kd (screen): 0.539 nM
B13: E103G (designed binder)
chain: B1 chain with I23K, E103G

apparent Kd (screen): 1.05 nM
B20: E60C (designed binder)
chain: B1 chain with I23K, E60C
